Laboratory results reported in the supplement of paper PMC10567573.

B1: SMG5 (parent)
chain: QEKLQVLMAEGLLPAVKVFLDWLR
B2: SMAD6 (parent)
chain: SGLVRRLWRSRVVPDREEGGSGGG

Variants of: B1
Test: protein stability index of a GFP-peptide fusion (GPS, HEK-293T) (PSI 1-6); higher = more stable
Settings: c terminus: a fixed tail appended
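Note: lentivirally expressed fusions sorted by FACS into six bins by GFP to DsRed ratio, PSI derived from sequencing read proportions per bin multiplied by bin number.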

In order of rising protein stability index:
1. QEKEQVLMAEGLLPAVKVFLDWLR  1.12
2. QEKLQVLSAEGLLPAVKVFLDWLR  1.31
3. QEKLQVLFAEGLLPAVKVFLDWLR  1.36
4. QLKLQVLMAEGLLPAVKVFLDWLR  1.44
5. QEKLWVLMAEGLLPAVKVFLDWLR  1.45
6. QEILQVLMAEGLLPAVKVFLDWLR  1.45
7. HEKLQVLMAEGLLPAVKVFLDWLR  1.45
8. QEKLFVLMAEGLLPAVKVFLDWLR  1.46
9. QEKLTVLMAEGLLPAVKVFLDWLR  1.47
10. QEKLQMLMAEGLLPAVKVFLDWLR  1.48
11. QETLQVLMAEGLLPAVKVFLDWLR  1.48
12. QEWLQVLMAEGLLPAVKVFLDWLR  1.48
13. QEKLQILMAEGLLPAVKVFLDWLR  1.5
14. QEMLQVLMAEGLLPAVKVFLDWLR  1.5
15. QEFLQVLMAEGLLPAVKVFLDWLR  1.53
16. CEKLQVLMAEGLLPAVKVFLDWLR  1.53
17. QEKLQVCMAEGLLPAVKVFLDWLR  1.54
18. QEKLQHLMAEGLLPAVKVFLDWLR  1.55
19. QWKLQVLMAEGLLPAVKVFLDWLR  1.56
20. REKLQVLMAEGLLPAVKVFLDWLR  1.57
21. QEKLHVLMAEGLLPAVKVFLDWLR  1.58
22. QGKLQVLMAEGLLPAVKVFLDWLR  1.6
23. NEKLQVLMAEGLLPAVKVFLDWLR  1.62
24. QEKLQVMMAEGLLPAVKVFLDWLR  1.64
25. QEKLNVLMAEGLLPAVKVFLDWLR  1.67
26. QEKLQVSMAEGLLPAVKVFLDWLR  1.67
27. QELLQVLMAEGLLPAVKVFLDWLR  1.78
28. QESLQVLMAEGLLPAVKVFLDWLR  1.79
29. QEKLYVLMAEGLLPAVKVFLDWLR  1.8
30. QEKLQVLDAEGLLPAVKVFLDWLR  1.8
31. QEKLQVFMAEGLLPAVKVFLDWLR  1.8
32. QEKLQALMAEGLLPAVKVFLDWLR  1.82
33. QEKLQVYMAEGLLPAVKVFLDWLR  1.86
34. QEKLGVLMAEGLLPAVKVFLDWLR  1.88
35. QEKLQVLIAEGLLPAVKVFLDWLR  1.9
36. QENLQVLMAEGLLPAVKVFLDWLR  1.91
37. QEGLQVLMAEGLLPAVKVFLDWLR  1.91
38. QEKIQVLMAEGLLPAVKVFLDWLR  1.91
39. QEKLQVDMAEGLLPAVKVFLDWLR  1.94
40. WEKLQVLMAEGLLPAVKVFLDWLR  1.95
41. QEKLQDLMAEGLLPAVKVFLDWLR  1.96
42. QEHLQVLMAEGLLPAVKVFLDWLR  1.96
43. TEKLQVLMAEGLLPAVKVFLDWLR  1.96
44. QEKLQRLMAEGLLPAVKVFLDWLR  1.99
45. QEKLAVLMAEGLLPAVKVFLDWLR  2
46. QEKLQPLMAEGLLPAVKVFLDWLR  2
47. QEKLQVEMAEGLLPAVKVFLDWLR  2
48. QEKLQQLMAEGLLPAVKVFLDWLR  2.02
49. QEVLQVLMAEGLLPAVKVFLDWLR  2.02
50. QEDLQVLMAEGLLPAVKVFLDWLR  2.02
51. QECLQVLMAEGLLPAVKVFLDWLR  2.03
52. QEKLQVVMAEGLLPAVKVFLDWLR  2.07
53. PEKLQVLMAEGLLPAVKVFLDWLR  2.09
54. QEKLCVLMAEGLLPAVKVFLDWLR  2.11
55. QEKLQCLMAEGLLPAVKVFLDWLR  2.14
56. QEYLQVLMAEGLLPAVKVFLDWLR  2.15
57. QYKLQVLMAEGLLPAVKVFLDWLR  2.15
58. QEKLQKLMAEGLLPAVKVFLDWLR  2.16
59. QEKLQELMAEGLLPAVKVFLDWLR  2.18
60. QEKWQVLMAEGLLPAVKVFLDWLR  2.18
61. VEKLQVLMAEGLLPAVKVFLDWLR  2.18
62. QEKLMVLMAEGLLPAVKVFLDWLR  2.19
63. QFKLQVLMAEGLLPAVKVFLDWLR  2.2
64. QEKHQVLMAEGLLPAVKVFLDWLR  2.2
65. QEKLPVLMAEGLLPAVKVFLDWLR  2.22
66. GEKLQVLMAEGLLPAVKVFLDWLR  2.22
67. QIKLQVLMAEGLLPAVKVFLDWLR  2.23
68. AEKLQVLMAEGLLPAVKVFLDWLR  2.23
69. QEELQVLMAEGLLPAVKVFLDWLR  2.25
70. QEKLQVLCAEGLLPAVKVFLDWLR  2.26
71. QEKLQVPMAEGLLPAVKVFLDWLR  2.26
72. QDKLQVLMAEGLLPAVKVFLDWLR  2.26
73. QEKLQVLWAEGLLPAVKVFLDWLR  2.3
74. QEKLVVLMAEGLLPAVKVFLDWLR  2.31
75. QAKLQVLMAEGLLPAVKVFLDWLR  2.31
76. QEKMQVLMAEGLLPAVKVFLDWLR  2.32
77. QRKLQVLMAEGLLPAVKVFLDWLR  2.37
78. MEKLQVLMAEGLLPAVKVFLDWLR  2.37
79. QKKLQVLMAEGLLPAVKVFLDWLR  2.38
80. QEKLQVAMAEGLLPAVKVFLDWLR  2.4
81. QEKLQGLMAEGLLPAVKVFLDWLR  2.42
82. QEKLQVLEAEGLLPAVKVFLDWLR  2.44
83. QEKLKVLMAEGLLPAVKVFLDWLR  2.45
84. QEKLQVNMAEGLLPAVKVFLDWLR  2.47
85. QCKLQVLMAEGLLPAVKVFLDWLR  2.47
86. QEKLQVLLAEGLLPAVKVFLDWLR  2.48
87. QEKLQVKMAEGLLPAVKVFLDWLR  2.49
88. QEKLLVLMAEGLLPAVKVFLDWLR  2.5
89. QEKLQWLMAEGLLPAVKVFLDWLR  2.51
90. QEKLQVLAAEGLLPAVKVFLDWLR  2.54
91. QVKLQVLMAEGLLPAVKVFLDWLR  2.56
92. QEKLQVLNAEGLLPAVKVFLDWLR  2.57
93. QEKVQVLMAEGLLPAVKVFLDWLR  2.58
94. QEKLQVLMCEGLLPAVKVFLDWLR  2.63
95. QEQLQVLMAEGLLPAVKVFLDWLR  2.66
96. QTKLQVLMAEGLLPAVKVFLDWLR  2.68
97. QEKRQVLMAEGLLPAVKVFLDWLR  2.69
98. QEKFQVLMAEGLLPAVKVFLDWLR  2.71
99. QEKSQVLMAEGLLPAVKVFLDWLR  2.75
100. DEKLQVLMAEGLLPAVKVFLDWLR  2.79
101. QEKLSVLMAEGLLPAVKVFLDWLR  2.8
102. QEKLQVLKAEGLLPAVKVFLDWLR  2.8
103. YEKLQVLMAEGLLPAVKVFLDWLR  2.81
104. QMKLQVLMAEGLLPAVKVFLDWLR  2.83
105. QEKLQVLQAEGLLPAVKVFLDWLR  2.85
106. QEKLQVLGAEGLLPAVKVFLDWLR  2.85
107. QEKLIVLMAEGLLPAVKVFLDWLR  2.86
108. QNKLQVLMAEGLLPAVKVFLDWLR  2.86
109. SEKLQVLMAEGLLPAVKVFLDWLR  2.88
110. FEKLQVLMAEGLLPAVKVFLDWLR  2.89
111. QQKLQVLMAEGLLPAVKVFLDWLR  2.92
112. IEKLQVLMAEGLLPAVKVFLDWLR  2.95
113. QPKLQVLMAEGLLPAVKVFLDWLR  2.96
114. QEKLQVLRAEGLLPAVKVFLDWLR  3.01
115. EEKLQVLMAEGLLPAVKVFLDWLR  3.01
116. QEKLQVLTAEGLLPAVKVFLDWLR  3.02
117. QEKLQVLYAEGLLPAVKVFLDWLR  3.06
118. QEKLQYLMAEGLLPAVKVFLDWLR  3.07
119. QEKGQVLMAEGLLPAVKVFLDWLR  3.1
120. QSKLQVLMAEGLLPAVKVFLDWLR  3.11
121. QEKLDVLMAEGLLPAVKVFLDWLR  3.13
122. QEKCQVLMAEGLLPAVKVFLDWLR  3.13
123. QEKLQNLMAEGLLPAVKVFLDWLR  3.16
124. QEKTQVLMAEGLLPAVKVFLDWLR  3.18
125. QEKLQVWMAEGLLPAVKVFLDWLR  3.24
126. QEKDQVLMAEGLLPAVKVFLDWLR  3.26
127. LEKLQVLMAEGLLPAVKVFLDWLR  3.5
128. QEKLQVLVAEGLLPAVKVFLDWLR  3.7
129. QERLQVLMAEGLLPAVKVFLDWLR  3.73
130. QHKLQVLMAEGLLPAVKVFLDWLR  3.82
131. QEKYQVLMAEGLLPAVKVFLDWLR  4.02
132. QEKLEVLMAEGLLPAVKVFLDWLR  4.03
133. QEALQVLMAEGLLPAVKVFLDWLR  4.03
134. QEKLQVRMAEGLLPAVKVFLDWLR  4.07
135. KEKLQVLMAEGLLPAVKVFLDWLR  4.12
136. QEKLQVLHAEGLLPAVKVFLDWLR  4.3

Variants of: B2
Test: as above
Settings: c terminus: a fixed tail appended

In order of rising protein stability index:
1. SGLVRRLWRSRVVPDRYEGGSGGG  1.19
2. SGLVRRLWRSRVVPDREEGWSGGG  1.99
3. SGLVRRLWRSRVVPDRENGGSGGG  2.42
4. SGLVRRLWRSRVVPDREEGVSGGG  2.44
5. SGLVRRLWRSRVVPDREYGGSGGG  2.44
6. SGLVRRLWRSRVVPDREEGGSGGF  2.44
7. SGLVRRLWRSRVVPDREFGGSGGG  2.68
8. SGLVRRLWRSRVVPDREEGLSGGG  2.74
9. SGLVRRLWRSRVVPDREEWGSGGG  2.79
10. SGLVRRLWRSRVVPDREEGFSGGG  2.82
11. SGLVRRLWRSRVVPDREEGGSGGH  2.83
12. SGLVRRLWRSRVVPDREAGGSGGG  2.9
13. SGLVRRLWRSRVVPDREEGGWGGG  2.9
14. SGLVRRLWRSRVVPDRECGGSGGG  2.94
15. SGLVRRLWRSRVVPDREEGGSFGG  2.98
16. SGLVRRLWRSRVVPDREEGGSGNG  3.01
17. SGLVRRLWRSRVVPDREEGCSGGG  3.04
18. SGLVRRLWRSRVVPDREEGGSCGG  3.04
19. SGLVRRLWRSRVVPDREEGISGGG  3.06
20. SGLVRRLWRSRVVPDREEGGYGGG  3.09
21. SGLVRRLWRSRVVPDREEGNSGGG  3.11
22. SGLVRRLWRSRVVPDREEGGSGFG  3.13
23. SGLVRRLWRSRVVPDREEGGSGMG  3.25
24. SGLVRRLWRSRVVPDREEMGSGGG  3.35
25. SGLVRRLWRSRVVPDREEGGVGGG  3.37
26. SGLVRRLWRSRVVPDREPGGSGGG  3.46
27. SGLVRRLWRSRVVPDREEGGEGGG  3.53
28. SGLVRRLWRSRVVPDREEGGSGGQ  3.59
29. SGLVRRLWRSRVVPDREEGGSGHG  3.7
30. SGLVRRLWRSRVVPDREEGGSGGK  3.78
31. SGLVRRLWRSRVVPDREEGGSGVG  3.78
32. SGLVRRLWRSRVVPDREDGGSGGG  3.82
33. SGLVRRLWRSRVVPDREEGGSAGG  3.84
34. SGLVRRLWRSRVVPDREVGGSGGG  3.85
35. SGLVRRLWRSRVVPDREEGGSIGG  3.87
36. SGLVRRLWRSRVVPDREEGGSGPG  3.89
37. SGLVRRLWRSRVVPDREEGGSGEG  3.9
38. SGLVRRLWRSRVVPDREEGQSGGG  3.96
39. SGLVRRLWRSRVVPDREEGASGGG  4
40. SGLVRRLWRSRVVPDREEGGSGGE  4
41. SGLVRRLWRSRVVPDREEGGSGGT  4.01
42. SGLVRRLWRSRVVPDREEGRSGGG  4.04
43. SGLVRRLWRSRVVPDREEGGSEGG  4.04
44. SGLVRRLWRSRVVPDREEKGSGGG  4.06
45. SGLVRRLWRSRVVPDREEPGSGGG  4.07
46. SGLVRRLWRSRVVPDREIGGSGGG  4.17
47. SGLVRRLWRSRVVPDREEAGSGGG  4.28
48. SGLVRRLWRSRVVPDREEGGSGSG  4.47
49. SGLVRRLWRSRVVPDREEGGSRGG  4.48
50. SGLVRRLWRSRVVPDREEGGDGGG  4.54
51. SGLVRRLWRSRVVPDREEGGSGGC  4.91
52. SGLVRRLWRSRVVPDREEGGSGDG  5.01
